Test results as given in the RNAGym collection of RNA variant scans (doi:10.7554/elife.80360).

B1: Twister Ribozyme (parent)
chain: AACACUGCCAAUGCCGGUCCCAAGCCCGGAUAAAAGUGGAGGGGGCGG

Variants of: B1
Test: self-cleavage, relative activity (ratio to wild type); higher = more cleavage; co-transcriptional
For AACACUGCCAAUGCCGGUCCCAAGCCCGGAUAAAUGUGGAGGAGGCGG [A35U G43A], the self-cleavage was 0.25.
AACACUGCCAAUGCCGGUCCCAAGCCCGGAUAAAUGUGGAGGUGGCGG [A35U G43U] gave a self-cleavage of 0.352.
AACACUGCCAAUGCCGGUCCCAAGCCCGGAUAAAUGUGGAGGCGGCGG [A35U G43C] gave a self-cleavage of 0.208.
Work on AACACUGCCAAUGCCGGUCCCAAGCCCGGAUAAAUGUGGAGGGGGAGG [A35U C46A] yielded a self-cleavage of 1.04.
In the case of AACACUGCCAAUGCCGGUCCCAAGCCCGGAUAAAUGUGGAGGGGGUGG [A35U C46U], the self-cleavage is reported as 0.894.
For AACACUGCCAAUGCCGGUCCCAAGCCCGGAUAAAUGUGGAGGGGGGGG [A35U C46G], the self-cleavage was 0.927.
Work on AACACUGCCAAUGCCGGUCCCAAGCCCGGAUAAAAGAGAAGGGGGCGG [U37A G39A] yielded a self-cleavage of 0.173.
AACACUGCCAAUGCCGGUCCCAAGCCCGGAUAAAAGAGUAGGGGGCGG [U37A G39U] showed a self-cleavage of 0.159.
AACACUGCCAAUGCCGGUCCCAAGCCCGGAUAAAAAUGGAGGGGCCGG [G36A G45C] gave a self-cleavage of 0.256.
In the case of AACACUGCCAAUGCCGGUCCCAAGCCCGGAUAAAAUUGGAGGCGGCGG [G36U G43C], the self-cleavage is reported as 0.124.
Variant AACACUGCCAAUGCCGGUCCCAAGCCCGGAUAAAAUUGGAGGAGGCGG [G36U G43A] has a self-cleavage of 0.102.
For AACACUGCCAAUGCCGGUCCCAAGCCCGGAUAAAAAUGGAGGGUGCGG [G36A G44U], the self-cleavage was 0.791.
In the case of AACACUGCCAAUGCCGGUCCCAAGCCCGGAUAAAAAUGGAGGGAGCGG [G36A G44A], the self-cleavage is reported as 0.8.
Work on AACACUGCCAAUGCCGGUCCCAAGCCCGGAUAAAAAUGGAGGGCGCGG [G36A G44C] yielded a self-cleavage of 0.762.
For AACACUGCCAAUGCCGGUCCCAAGCCCGGAUAAAAUUGCAGGGGGCGG [G36U G39C], the self-cleavage was 0.15.
In the case of AACACUGCCAAUGCCGGUCCCAAGCCCGGAUAAAAUUGAAGGGGGCGG [G36U G39A], the self-cleavage is reported as 0.172.
Work on AACACUGCCAAUGCCGGUCCCAAGCCCGGAUAAAAUUGUAGGGGGCGG [G36U G39U] yielded a self-cleavage of 0.147.
Variant AACACUGCCAAUGCCGGUCCCAAGCCCGGAUAAAGGAGGAGGGGGCGG [A35G U37A] has a self-cleavage of 0.574.
AACACUGCCAAUGCCGGUCCCAAGCCCGGAUAAAACUGGAGGGAGCGG [G36C G44A] showed a self-cleavage of 0.7.
For AACACUGCCAAUGCCGGUCCCAAGCCCGGAUAAAAGAGGACGGGGCGG [U37A G41C], the self-cleavage was 0.178.
For AACACUGCCAAUGCCGGUCCCAAGCCCGGAUAAAAGAGGAAGGGGCGG [U37A G41A], the self-cleavage was 0.16.
AACACUGCCAAUGCCGGUCCCAAGCCCGGAUAAAAGAGGAUGGGGCGG [U37A G41U] gave a self-cleavage of 0.115.
For AACACUGCCAAUGCCGGUCCCAAGCCCGGAUAAAACUGGAGGGGGCGU [G36C G48U], the self-cleavage was 0.455.
Work on AACACUGCCAAUGCCGGUCCCAAGCCCGGAUAAAAAUGGUGGGGGCGG [G36A A40U] yielded a self-cleavage of 0.124.
In the case of AACACUGCCAAUGCCGGUCCCAAGCCCGGAUAAAAAUGGGGGGGGCGG [G36A A40G], the self-cleavage is reported as 0.144.
AACACUGCCAAUGCCGGUCCCAAGCCCGGAUAAAAUUGGAGGGGGUGG [G36U C46U] gave a self-cleavage of 0.408.
Work on AACACUGCCAAUGCCGGUCCCAAGCCCGGAUAAAAUUGGAGGGGGGGG [G36U C46G] yielded a self-cleavage of 0.313.
Variant AACACUGCCAAUGCCGGUCCCAAGCCCGGAUAAAAUUGGAGGGGGAGG [G36U C46A] has a self-cleavage of 0.31.
AACACUGCCAAUGCCGGUCCCAAGCCCGGAUAAAUGUGGAGGGGUCGG [A35U G45U] showed a self-cleavage of 0.812.
Variant AACACUGCCAAUGCCGGUCCCAAGCCCGGAUAAAUGUGGAGGGGCCGG [A35U G45C] has a self-cleavage of 0.723.
AACACUGCCAAUGCCGGUCCCAAGCCCGGAUAAAAAUUGAGGGGGCGG [G36A G38U] showed a self-cleavage of 0.193.
AACACUGCCAAUGCCGGUCCCAAGCCCGGAUAAAAAUAGAGGGGGCGG [G36A G38A] showed a self-cleavage of 0.359.
AACACUGCCAAUGCCGGUCCCAAGCCCGGAUAAAACCGGAGGGGGCGG [G36C U37C] showed a self-cleavage of 0.123.
AACACUGCCAAUGCCGGUCCCAAGCCCGGAUAAAACGGGAGGGGGCGG [G36C U37G] gave a self-cleavage of 0.297.
AACACUGCCAAUGCCGGUCCCAAGCCCGGAUAAAACAGGAGGGGGCGG [G36C U37A] gave a self-cleavage of 0.107.
For AACACUGCCAAUGCCGGUCCCAAGCCCGGAUAAAUGUGGAGGGGGCGC [A35U G48C], the self-cleavage was 1.07.
For AACACUGCCAAUGCCGGUCCCAAGCCCGGAUAAAUGUGGAGGGGGCGU [A35U G48U], the self-cleavage was 1.17.
Work on AACACUGCCAAUGCCGGUCCCAAGCCCGGAUAAAAAUGGAGGCGGCGG [G36A G43C] yielded a self-cleavage of 0.152.
Work on AACACUGCCAAUGCCGGUCCCAAGCCCGGAUAAAACUGGAGGAGGCGG [G36C G43A] yielded a self-cleavage of 0.134.
Variant AACACUGCCAAUGCCGGUCCCAAGCCCGGAUAAAACUGGAGGUGGCGG [G36C G43U] has a self-cleavage of 0.116.
For AACACUGCCAAUGCCGGUCCCAAGCCCGGAUAAAUGUGGACGGGGCGG [A35U G41C], the self-cleavage was 0.206.
Variant AACACUGCCAAUGCCGGUCCCAAGCCCGGAUAAAUGUGGAUGGGGCGG [A35U G41U] has a self-cleavage of 0.693.
Variant AACACUGCCAAUGCCGGUCCCAAGCCCGGAUAAAAACGGAGGGGGCGG [G36A U37C] has a self-cleavage of 0.156.
For AACACUGCCAAUGCCGGUCCCAAGCCCGGAUAAAAUUGGAGGGGGCGU [G36U G48U], the self-cleavage was 0.454.
For AACACUGCCAAUGCCGGUCCCAAGCCCGGAUAAAACUGGAGGGGGCAG [G36C G47A], the self-cleavage was 0.183.
In the case of AACACUGCCAAUGCCGGUCCCAAGCCCGGAUAAAGGUGGAGGGCGCGG [A35G G44C], the self-cleavage is reported as 0.821.
In the case of AACACUGCCAAUGCCGGUCCCAAGCCCGGAUAAAGGUGGAGGGAGCGG [A35G G44A], the self-cleavage is reported as 0.808.
With AACACUGCCAAUGCCGGUCCCAAGCCCGGAUAAAUGUGCAGGGGGCGG [A35U G39C] the self-cleavage was 0.104.
With AACACUGCCAAUGCCGGUCCCAAGCCCGGAUAAAAGAAGAGGGGGCGG [U37A G38A] the self-cleavage was 0.821.
For AACACUGCCAAUGCCGGUCCCAAGCCCGGAUAAAAGAUGAGGGGGCGG [U37A G38U], the self-cleavage was 0.38.
For AACACUGCCAAUGCCGGUCCCAAGCCCGGAUAAAAGACGAGGGGGCGG [U37A G38C], the self-cleavage was 0.551.
Variant AACACUGCCAAUGCCGGUCCCAAGCCCGGAUAAAGGUGGCGGGGGCGG [A35G A40C] has a self-cleavage of 0.142.
Work on AACACUGCCAAUGCCGGUCCCAAGCCCGGAUAAAAUUGGAGGGGCCGG [G36U G45C] yielded a self-cleavage of 0.199.
AACACUGCCAAUGCCGGUCCCAAGCCCGGAUAAAAUUGGAGGGGUCGG [G36U G45U] gave a self-cleavage of 0.315.
